In paper PMC9482650, “Quantitative fragmentomics allow affinity mapping of interactomes” (Nature Communications, 2022) one finds pKd data, which are given here for five molecules.

Common to all, as to assay: holdup assay
What all share (design): key: below the threshold = too weak to quantify, mostly under pKd 3.1 to 4
What all share (settings): plain residues with an end cap or a label only (N-terminal biotin on a linker: ado-ado)

Assay [1] concerns the target DLG4_2, P78352.
Assay [2] concerns the target DLG1_2, Q12959.
The target of assay [3] is T1, ARHGAP21, Q5T5U3.
T1 sequence (Q5T5U3 45-169, limits assumed, looked up): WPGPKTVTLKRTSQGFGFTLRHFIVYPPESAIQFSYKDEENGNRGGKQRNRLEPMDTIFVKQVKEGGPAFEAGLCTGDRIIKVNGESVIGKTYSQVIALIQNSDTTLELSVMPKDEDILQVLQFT

The target of assay [4] is T2, APBA2_2, Q99767.
T2 sequence (Q99767 654-744, limits assumed, looked up): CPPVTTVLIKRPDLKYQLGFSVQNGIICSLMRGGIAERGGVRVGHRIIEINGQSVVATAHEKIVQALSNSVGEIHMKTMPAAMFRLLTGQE

The target of assay [5] is T3, HTRA4, P83105.
T3 sequence (P83105 378-476, limits assumed, looked up): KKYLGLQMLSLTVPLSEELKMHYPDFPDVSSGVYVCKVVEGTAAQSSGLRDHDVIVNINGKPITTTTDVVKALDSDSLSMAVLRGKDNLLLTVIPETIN

For assay [6], the target named is T4, TIAM2, Q8IVF5.
T4 sequence (Q8IVF5 885-986, limits assumed, looked up): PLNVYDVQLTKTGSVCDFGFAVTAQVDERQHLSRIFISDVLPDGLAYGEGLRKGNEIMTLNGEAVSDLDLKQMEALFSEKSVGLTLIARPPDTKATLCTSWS

For assay [7], the target named is LIMK2, P53671.
The target in assay [8] is T5, NHERF3_1, Q5T2W1.
T5 sequence (Q5T2W1 4-100, limits assumed, looked up): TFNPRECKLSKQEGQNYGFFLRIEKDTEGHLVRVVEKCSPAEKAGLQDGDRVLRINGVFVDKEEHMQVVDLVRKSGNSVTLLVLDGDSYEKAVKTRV

Assay [9] has as its target T6, RADIL, Q96JH8.
T6 sequence (Q96JH8 971-1071, limits assumed, looked up): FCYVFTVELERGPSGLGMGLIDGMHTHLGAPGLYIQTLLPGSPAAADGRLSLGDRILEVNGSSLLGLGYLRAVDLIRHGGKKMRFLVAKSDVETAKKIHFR

In assay [10] the target is T7, DLG3_2, Q92796.
T7 sequence (Q92796 221-321, limits assumed, looked up): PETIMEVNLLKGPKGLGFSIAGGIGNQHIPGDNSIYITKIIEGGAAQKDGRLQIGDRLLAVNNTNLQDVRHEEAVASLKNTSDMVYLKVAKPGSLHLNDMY

Assay [11] deals with T8, RAPGEF6, Q8TEU7.
T8 sequence (Q8TEU7 525-625, limits assumed, looked up): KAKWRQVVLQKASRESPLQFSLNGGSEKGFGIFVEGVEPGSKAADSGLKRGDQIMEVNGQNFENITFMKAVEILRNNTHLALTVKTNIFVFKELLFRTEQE

In assay [12] the target is TJP1_3, Q07157.
Assay [13] addresses T9, SNTB1, Q13884.
T9 sequence (Q13884 107-205, limits assumed, looked up): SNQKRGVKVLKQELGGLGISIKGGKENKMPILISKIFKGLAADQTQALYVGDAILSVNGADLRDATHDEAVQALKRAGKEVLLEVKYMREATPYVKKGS

Assay [14] addresses Inadl_5, Q8NI35.
The target in assay [15] is T10, PDZD2_2, O15018.
T10 sequence (O15018 329-429, limits assumed, looked up): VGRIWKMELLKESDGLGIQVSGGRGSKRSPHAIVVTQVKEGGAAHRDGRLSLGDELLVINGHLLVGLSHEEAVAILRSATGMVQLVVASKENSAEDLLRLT

The target in assay [16] is T11, LNX2_3, Q8N448.
T11 sequence (Q8N448 463-564, limits assumed, looked up): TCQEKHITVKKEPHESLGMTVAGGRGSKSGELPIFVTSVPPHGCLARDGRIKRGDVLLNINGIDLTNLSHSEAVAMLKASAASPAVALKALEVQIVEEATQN

Assay [17] addresses PDLIM1, O00151.
Assay [18] concerns the target T12, SNTG1, Q9NSN8.
T12 sequence (Q9NSN8 52-150, limits assumed, looked up): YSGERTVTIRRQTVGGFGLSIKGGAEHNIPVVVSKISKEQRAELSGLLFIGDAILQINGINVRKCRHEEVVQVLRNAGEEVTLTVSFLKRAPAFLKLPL

In assay [19] the target is FRMPD2_3, Q68DX3.
In assay [20] the target is Inadl_3, Q8NI35.
The target in assay [21] is T13, MPP6, Q9NZW5.
T13 sequence (Q9NZW5 125-219, limits assumed, looked up): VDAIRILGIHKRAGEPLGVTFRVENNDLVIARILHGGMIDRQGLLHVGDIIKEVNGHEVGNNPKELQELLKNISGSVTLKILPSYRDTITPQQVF

Assay [22] has as its target T14, DVL3, Q92997.
T14 sequence (Q92997 244-331, limits assumed, looked up): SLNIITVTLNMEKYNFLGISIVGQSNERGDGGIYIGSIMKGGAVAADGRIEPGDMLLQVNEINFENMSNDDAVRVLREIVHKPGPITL

Chain of LIMK2, P53671 (P53671 143-248): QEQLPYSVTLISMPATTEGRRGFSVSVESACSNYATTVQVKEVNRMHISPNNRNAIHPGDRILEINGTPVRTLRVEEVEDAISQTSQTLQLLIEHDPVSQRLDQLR
Chain of PDLIM1, O00151 (O00151 1-87): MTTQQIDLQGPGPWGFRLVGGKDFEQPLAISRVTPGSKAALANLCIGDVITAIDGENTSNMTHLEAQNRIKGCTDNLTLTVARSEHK
Chain of TJP1_3, Q07157 (Q07157 416-512): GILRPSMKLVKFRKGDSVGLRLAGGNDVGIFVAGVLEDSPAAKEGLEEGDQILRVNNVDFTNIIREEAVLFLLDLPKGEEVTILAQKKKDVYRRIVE
Chain of DLG1_2, Q12959 (Q12959 314-412): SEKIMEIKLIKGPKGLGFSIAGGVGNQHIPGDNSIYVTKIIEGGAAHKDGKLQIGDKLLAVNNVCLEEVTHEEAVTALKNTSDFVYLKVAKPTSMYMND
Chain of Inadl_3, Q8NI35 (Q8NI35 359-469): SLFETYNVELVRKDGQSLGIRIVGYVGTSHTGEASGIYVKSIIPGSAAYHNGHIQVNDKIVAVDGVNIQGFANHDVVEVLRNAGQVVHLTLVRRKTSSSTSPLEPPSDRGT
Chain of FRMPD2_3, Q68DX3 (Q68DX3 1073-1166): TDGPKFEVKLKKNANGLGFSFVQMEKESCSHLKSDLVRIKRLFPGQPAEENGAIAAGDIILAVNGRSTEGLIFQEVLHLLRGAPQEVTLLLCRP
Chain of Inadl_5, Q8NI35 (Q8NI35 673-780): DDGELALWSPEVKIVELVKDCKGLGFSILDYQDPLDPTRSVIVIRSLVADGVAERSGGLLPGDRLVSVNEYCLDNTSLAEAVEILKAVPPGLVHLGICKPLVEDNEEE
Chain of DLG4_2, P78352 (P78352 155-259): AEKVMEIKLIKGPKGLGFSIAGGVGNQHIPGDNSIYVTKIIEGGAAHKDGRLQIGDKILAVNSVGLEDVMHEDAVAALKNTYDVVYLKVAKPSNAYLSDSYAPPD

B1: JAM2, P57087 (peptide)
chain: DFKHTKSFII
On to B1, for which the negative logarithm of the Kd (pKd) (usually −log10 of the Kd, conventionally taken in molar units) is “below the threshold” in [1]; 3.81 in [2]; “below the threshold” in [3]; “below the threshold” in assay [4]; 3.79 in assay [5]; 4.19 in assay [6]. Also, the pKd entry in [7] was “below the threshold”; in assay [8], “below the threshold”; in assay [9] it was 4.21; in [10] it was 4.2; in [11] it was “below the threshold”; in assay [12], “below the threshold”. Moreover, the pKd result in assay [13] is “below the threshold”; in assay [14], “below the threshold”; in [15], 3.87; in [16] it was “below the threshold”; in assay [17], “below the threshold”; in [18], “below the threshold”. Moreover, the pKd result in assay [19] was “below the threshold”; in assay [20], 4.45; in [21] it was “below the threshold”; in [22], 3.67.

B2: CLDN7, O95471 (peptide)
chain: PKSNSSKEYV
As to B2, the pKd result in assay [1], in [2], in assay [3], in assay [4], in assay [5] and in [6] was “below the threshold” in each case. The pKd result was “below the threshold” in assay [7]; “below the threshold” in [8]; 4.07 in assay [9]; “below the threshold” in assay [10]; “below the threshold” in assay [11]; “below the threshold” in [12]. Besides, the negative-log Kd (pKd) entry in assay [13] was “below the threshold”; in assay [14], “below the threshold”; in assay [15], 3.82; in assay [16] it was “below the threshold”; in [17], “below the threshold”; in assay [18], “below the threshold”. Moreover, the pKd entry in assay [19], in assay [20], in assay [21] and in assay [22] was “below the threshold” throughout.

B3: JAM1, Q9Y624 (peptide)
chain: EFKQTSSFLV
Regarding B3, the pKd in [1] is 3.47; in assay [2], “below the threshold”; in assay [3] it was “below the threshold”; in assay [4], “below the threshold”; in [5] it was 4.05; in [6], 4.14. Besides, the pKd result is “below the threshold” in assay [7]; 4.16 in assay [8]; 4.62 in assay [9]; 4.2 in [10]; “below the threshold” in [11]; “below the threshold” in [12]. Moreover, the pKd result in assay [13] is “below the threshold”; in assay [14], 3.53; in assay [15] it was 3.72; in assay [16] it was “below the threshold”; in [17] it was “below the threshold”; in assay [18] it was “below the threshold”. Further, the pKd result in assay [19] is “below the threshold”; in [20], 4.65; in assay [21], “below the threshold”; in assay [22], “below the threshold”.

B4: GRID2, O43424 (peptide)
chain: GNDPDRGTSI
With B4, the negative logarithm of the Kd (pKd) entry in assay [1] is “below the threshold”; in assay [2], “below the threshold”; in assay [3] it was “below the threshold”; in [4], “below the threshold”; in [5], “below the threshold”; in assay [6], 4.09. Also, the pKd entry in [7] was “below the threshold”; in assay [8], 3.64; in assay [9], “below the threshold”; in assay [10], 4.25; in assay [11], “below the threshold”; in [12], “below the threshold”. The negative logarithm of the Kd (pKd) entry in assay [13] is “below the threshold”; in [14], “below the threshold”; in assay [15] it was 4.76; in assay [16], “below the threshold”; in [17] it was “below the threshold”; in assay [18], “below the threshold”. In addition, the pKd entry in assay [19], in assay [20], in assay [21] and in [22] was “below the threshold” throughout.

B5: KIT, P10721 (peptide)
chain: SQPLLVHDDV
For B5, the negative-log Kd (pKd) entry in [1] is “below the threshold”; in assay [2] it was “below the threshold”; in assay [3], “below the threshold”; in assay [4], “below the threshold”; in assay [5] it was 3.88; in [6], “below the threshold”. Moreover, the pKd result in assay [7], in assay [8], in assay [9], in assay [10], in assay [11] and in assay [12] was “below the threshold” throughout. The pKd result is “below the threshold” in [13]; “below the threshold” in [14]; 3.99 in [15]; “below the threshold” in assay [16]; “below the threshold” in assay [17]; “below the threshold” in assay [18]. The negative-log Kd (pKd) result in assay [19], in [20], in assay [21] and in [22] was “below the threshold” each time.
